Here are results for 5 molecules from patent US20260167721A1 (ABLEXIS, published 2026).

The target in test [1] is T1, recombinant human CD3 epsilon/gamma heterodimer (human, UniProt P07766 23-126; P09693 23-116).
T1 construct: Recombinant protein in solution (200-50 nM) in the Octet assay; also called hCD3 E/G
Put plainly: Octet BLI, mAb on FAB2G sensor, hCD3 E/G 200-50 nM; R^2 0.34. Background: In BLI a coated tip is dipped into the sample, and binding shifts an interference pattern.

The target in test [2] is T2, recombinant human CD3 epsilon/delta heterodimer (human, UniProt P07766 23-126; P04234 22-105).
T2 construct: Recombinant protein in solution (200-50 nM) in the Octet assay; also called hCD3 E/D; human CD3E/D
T2 sequence (P07766 23-126, stated change not applied, chain 1 of 2): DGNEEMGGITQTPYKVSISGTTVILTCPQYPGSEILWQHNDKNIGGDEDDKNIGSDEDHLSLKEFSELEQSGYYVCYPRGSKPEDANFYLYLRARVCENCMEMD
T2 sequence (P04234 22-105, stated change not applied, chain 2 of 2): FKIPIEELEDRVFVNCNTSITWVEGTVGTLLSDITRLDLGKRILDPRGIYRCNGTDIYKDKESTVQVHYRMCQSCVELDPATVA
Put plainly: Octet BLI, mAb on FAB2G sensor, hCD3 E/D 200-50 nM; R^2 0.96.
Experimental: Samples were evaluated by flow cytometry analysis against Jurkat and human Pan-T cells (FIG. 1B) as well as by Octet against recombinant human CD3 proteins to evaluate apparent affinities and binding off-rates (Table 6, infra).

In test [3] the target is T3, recombinant CD3 proteins (UniProt P07766 23-126).
T3 construct: elsewhere it uses human CD3 E/D and E/G heterodimers
T3 sequence (P07766 23-126): as the sequence (P07766 23-126, stated change not applied, chain 1 of 2) above
The test can be described thus: Octet BLI, recombinant CD3; Full R^2 0.989.

The target of test [4] is T3, recombinant CD3 proteins. Put plainly: Octet BLI, recombinant CD3; Full R^2 0.986.
The target of test [5] is T3, recombinant CD3 proteins. The test can be described thus: Octet BLI, recombinant CD3; Full R^2 0.985.
Test [6] addresses T3, recombinant CD3 proteins. Put plainly: Octet BLI, recombinant CD3; Full R^2 0.814*.

T1 sequence (P07766 23-126, chain 1 of 2): as the sequence (P07766 23-126, stated change not applied, chain 1 of 2) above
T1 sequence (P09693 23-116, chain 2 of 2): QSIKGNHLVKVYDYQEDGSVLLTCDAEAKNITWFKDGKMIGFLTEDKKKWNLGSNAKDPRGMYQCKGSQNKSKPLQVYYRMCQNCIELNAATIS

B1: ABL-CD3-13 (antibody, V domains shown)
VH: EVQLVESGGGLVQPGGSLRLSCAASGFTFSNYWMSWVRQAPGKGLEWVANIKEDGSEKYYVDSVKGRFTISRDNAKNSLYLQMNSLTAEDTSVYYCARERRTGYFDYWGQGTLVTVSS
VL: DIQMTQSPSTLSASVGDRVTITCRASQSISNWLAWYQQKPGKAPNLLIYKASSLESGVPSRFSGSGSGTEFTLTISSLQPDDFANYYCQQYKSYSWTFGQGTKVEIK
notes: Chimeric hybridoma mAb: human V, CH1, upper hinge; mouse middle hinge, CH2, CH3
Consider B1, for which, in test [1], the Kd – broadly, the free concentration of one partner at which half of the binding sites on the other are occupied at equilibrium, for simple one-to-one binding – was less than 0.001 nM; the koff (in general, the rate constant with which the complex falls apart) is less than 1e-07 s⁻¹; the kon (as a rule, the second-order rate constant of association) is 26700 M⁻¹ s⁻¹. For the same molecule, in test [2], the Kd was found to be 23.4 nM, the Response amounted to 0.08, the koff amounted to 0.000728 s⁻¹ and the kon is 31200 M⁻¹ s⁻¹.

B2: CD3 × CD33-BspAb118 (bispecific antibody)
chain 1: FMLTQPHSVSESPGKTVTISCTRSSGSIASNYVQWYQQRPGSSPTTVIYEDNQRPSGVPDRFSGSIDSSSNSASLTISGLQTEDEADYYCQSYDSSNRVFGCGTKLTVLGGGGSGGGGSGGGGSGGGGSEVQLVESGGGLVKPGGSLRLSCVASGFTFSRYSMNWVRQAPGKCLEWVSSISSSSRYTYYADSLKGRFIMSRDNAKNSLFLQMNSLRAEDTAVYYCARNLYNALDYWGQGTLVTVSSDKTHTCPPCPAPEFEGGPSVFLFPPKPKDTLMISRTPEVTCVVVDVSHEDPEVKFNWYVDGVEVHNAKTKPREEQYNSTYRVVSVLTVLHQDWLNGKEYKCKVSNKALPASIEKTISKAKGQPREPQVYTLPPCREEMTKNQVSLWCLVKGFYPSDIAVEWESNGQPENNYKTTPPVLDSDGSFFLYSKLTVDKSRWQQGNVFSCSVMHEALHNHYTQKSLSLSPGK
chain 2: EVQLVQSGAEVKKPGSSVKVSCKASGYTITDSNIHWVRQAPGQSLEWIGYIYPYNGGTDYNQKFKNRATLTVDNPTNTAYMELSSLRSEDTAFYYCVNGNPWLAYWGQGTLVTVSSASTKGPSVFPLAPSSKSTSGGTAALGCLVKDYFPEPVTVSWNSGALTSGVHTFPAVLQSSGLYSLSSVVTVPSSSLGTQTYICNVNHKPSNTKVDKRVEPKSCDKTHTCPPCPAPEFEGGPSVFLFPPKPKDTLMISRTPEVTCVVVDVSHEDPEVKFNWYVDGVEVHNAKTKPREEQYNSTYRVVSVLTVLHQDWLNGKEYKCKVSNKALPASIEKTISKAKGQPREPQVCTLPPSREEMTKNQVSLSCAVKGFYPSDIAVEWESNGQPENNYKTTPPVLDSDGSFFLVSKLTVDKSRWQQGNVFSCSVMHEALHNRFTQKSLSLSPGK
chain 3: DIQLTQSPSTLSASVGDRVTITCRASESLDNYGIRFLTWFQQKPGKAPKLLMYAASNQGSGVPSRFSGSGSGTEFTLTISSLQPDDFATYYCQQTKEVPWSFGQGTKVEVKRTVAAPSVFIFPPSDEQLKSGTASVVCLLNNFYPREAKVQWKVDNALQSGNSQESVTEQDSKDSTYSLSSTLTLSKADYEKHKVYACEVTHQGLSSPVTKSFNRGEC
With B2, in the test with recombinant CD3 proteins [3], the dissociation constant (Kd) is 1.91 nM, the koff worked out at 0.000767 s⁻¹ and the kon is 403000 M⁻¹ s⁻¹.

B3: CD3 × CD33-BspAb119 (bispecific antibody)
chain 1: NFMLTQPHSVSESPGKTVTISCTRSSGSIASNYVQWYQQRPGSSPTTVIYEDNQRPSGVPDRFSGSIDSSSNSASLTISGLKTEDEADYYCQSYDSSNRVFGCGTKLTVLGGGGSGGGGSGGGGSGGGGSEVQVAESGGGLVKPGGSLRLSCAASGFTFSRYSMNWVRQAPGKCLEWVSSISSSGSYTYYADSVKGRFTISRDNAKNSLYLQMNSLRAEDTAVYYCVRERGKGAGMDVWGQGTTVTVSSDKTHTCPPCPAPEFEGGPSVFLFPPKPKDTLMISRTPEVTCVVVDVSHEDPEVKFNWYVDGVEVHNAKTKPREEQYNSTYRVVSVLTVLHQDWLNGKEYKCKVSNKALPASIEKTISKAKGQPREPQVYTLPPCREEMTKNQVSLWCLVKGFYPSDIAVEWESNGQPENNYKTTPPVLDSDGSFFLYSKLTVDKSRWQQGNVFSCSVMHEALHNHYTQKSLSLSPGK
chain 2: EVQLVQSGAEVKKPGSSVKVSCKASGYTITDSNIHWVRQAPGQSLEWIGYIYPYNGGTDYNQKFKNRATLTVDNPTNTAYMELSSLRSEDTAFYYCVNGNPWLAYWGQGTLVTVSSASTKGPSVFPLAPSSKSTSGGTAALGCLVKDYFPEPVTVSWNSGALTSGVHTFPAVLQSSGLYSLSSVVTVPSSSLGTQTYICNVNHKPSNTKVDKRVEPKSCDKTHTCPPCPAPEFEGGPSVFLFPPKPKDTLMISRTPEVTCVVVDVSHEDPEVKFNWYVDGVEVHNAKTKPREEQYNSTYRVVSVLTVLHQDWLNGKEYKCKVSNKALPASIEKTISKAKGQPREPQVCTLPPSREEMTKNQVSLSCAVKGFYPSDIAVEWESNGQPENNYKTTPPVLDSDGSFFLVSKLTVDKSRWQQGNVFSCSVMHEALHNRFTQKSLSLSPGK
chain 3: DIQLTQSPSTLSASVGDRVTITCRASESLDNYGIRFLTWFQQKPGKAPKLLMYAASNQGSGVPSRFSGSGSGTEFTLTISSLQPDDFATYYCQQTKEVPWSFGQGTKVEVKRTVAAPSVFIFPPSDEQLKSGTASVVCLLNNFYPREAKVQWKVDNALQSGNSQESVTEQDSKDSTYSLSSTLTLSKADYEKHKVYACEVTHQGLSSPVTKSFNRGEC
B3: in the test with recombinant CD3 proteins [4], the Kd stood at 21.7 nM, the koff turned out to be 0.00688 s⁻¹ and the kon worked out at 317000 M⁻¹ s⁻¹.

B4: CD3 × CD33-BspAb120 (bispecific antibody)
chain 1: NFMLTQPHSVSESPGKTVAISCTRSSGSIASNYVQWYQQRPGSSPTAVIYEDNQRPSGVPDRFSGSIDSSSNSAFLTISGLKTEDEADYYCQSYDSSNRVFGCGTKLTVLGGGGSGGGGSGGGGSGGGGSEVQLVESGGGLVKPGGSLRLSCAASGFTFSSYSMNWVRQAPGKCLEWVSSISRSSGYIFYADSVKGRFTISRDNAKNSLYLQMNSLRAEDTAVYYCVRERVGAGFDYWGQGTLVTVSSDKTHTCPPCPAPEFEGGPSVFLFPPKPKDTLMISRTPEVTCVVVDVSHEDPEVKFNWYVDGVEVHNAKTKPREEQYNSTYRVVSVLTVLHQDWLNGKEYKCKVSNKALPASIEKTISKAKGQPREPQVYTLPPCREEMTKNQVSLWCLVKGFYPSDIAVEWESNGQPENNYKTTPPVLDSDGSFFLYSKLTVDKSRWQQGNVFSCSVMHEALHNHYTQKSLSLSPGK
chain 2: EVQLVQSGAEVKKPGSSVKVSCKASGYTITDSNIHWVRQAPGQSLEWIGYIYPYNGGTDYNQKFKNRATLTVDNPTNTAYMELSSLRSEDTAFYYCVNGNPWLAYWGQGTLVTVSSASTKGPSVFPLAPSSKSTSGGTAALGCLVKDYFPEPVTVSWNSGALTSGVHTFPAVLQSSGLYSLSSVVTVPSSSLGTQTYICNVNHKPSNTKVDKRVEPKSCDKTHTCPPCPAPEFEGGPSVFLFPPKPKDTLMISRTPEVTCVVVDVSHEDPEVKFNWYVDGVEVHNAKTKPREEQYNSTYRVVSVLTVLHQDWLNGKEYKCKVSNKALPASIEKTISKAKGQPREPQVCTLPPSREEMTKNQVSLSCAVKGFYPSDIAVEWESNGQPENNYKTTPPVLDSDGSFFLVSKLTVDKSRWQQGNVFSCSVMHEALHNRFTQKSLSLSPGK
chain 3: DIQLTQSPSTLSASVGDRVTITCRASESLDNYGIRFLTWFQQKPGKAPKLLMYAASNQGSGVPSRFSGSGSGTEFTLTISSLQPDDFATYYCQQTKEVPWSFGQGTKVEVKRTVAAPSVFIFPPSDEQLKSGTASVVCLLNNFYPREAKVQWKVDNALQSGNSQESVTEQDSKDSTYSLSSTLTLSKADYEKHKVYACEVTHQGLSSPVTKSFNRGEC
Consider B4, for which, in the test with recombinant CD3 proteins [5], the dissociation constant (Kd) came out at 69 nM, the koff turned out to be 0.0189 s⁻¹ and the association rate constant (kon) stood at 274000 M⁻¹ s⁻¹.

B5: CD3 × CD33-BspAb121 (bispecific antibody)
chain 1: QTVVTQEPSLTVSPGGTVTLTCASSTGAVTSGYYPNWFQQKPGQAPRALIYSTSNKHSWTPARFSGSLLGGKAALTLSGVQPEDEAEYYCLLYYGGAYVFGCGTKVTVLGGGGSGGGGSGGGGSGGGGSEVQLVESGGGLVKPGGSLRLSCAASGFTFSSYSMNWVRQAPGKCLEWVSSISRSGTYIYYADSVKGRFTISRDNAKNSLYLQMNSLRAEDTAVYYCARERWELLYFDYWGQGTLVTVSSDKTHTCPPCPAPEFEGGPSVFLFPPKPKDTLMISRTPEVTCVVVDVSHEDPEVKFNWYVDGVEVHNAKTKPREEQYNSTYRVVSVLTVLHQDWLNGKEYKCKVSNKALPASIEKTISKAKGQPREPQVYTLPPCREEMTKNQVSLWCLVKGFYPSDIAVEWESNGQPENNYKTTPPVLDSDGSFFLYSKLTVDKSRWQQGNVFSCSVMHEALHNHYTQKSLSLSPGK
chain 2: EVQLVQSGAEVKKPGSSVKVSCKASGYTITDSNIHWVRQAPGQSLEWIGYIYPYNGGTDYNQKFKNRATLTVDNPTNTAYMELSSLRSEDTAFYYCVNGNPWLAYWGQGTLVTVSSASTKGPSVFPLAPSSKSTSGGTAALGCLVKDYFPEPVTVSWNSGALTSGVHTFPAVLQSSGLYSLSSVVTVPSSSLGTQTYICNVNHKPSNTKVDKRVEPKSCDKTHTCPPCPAPEFEGGPSVFLFPPKPKDTLMISRTPEVTCVVVDVSHEDPEVKFNWYVDGVEVHNAKTKPREEQYNSTYRVVSVLTVLHQDWLNGKEYKCKVSNKALPASIEKTISKAKGQPREPQVCTLPPSREEMTKNQVSLSCAVKGFYPSDIAVEWESNGQPENNYKTTPPVLDSDGSFFLVSKLTVDKSRWQQGNVFSCSVMHEALHNRFTQKSLSLSPGK
chain 3: DIQLTQSPSTLSASVGDRVTITCRASESLDNYGIRFLTWFQQKPGKAPKLLMYAASNQGSGVPSRFSGSGSGTEFTLTISSLQPDDFATYYCQQTKEVPWSFGQGTKVEVKRTVAAPSVFIFPPSDEQLKSGTASVVCLLNNFYPREAKVQWKVDNALQSGNSQESVTEQDSKDSTYSLSSTLTLSKADYEKHKVYACEVTHQGLSSPVTKSFNRGEC
Regarding B5, in the test with recombinant CD3 proteins [6], the dissociation constant Kd turned out to be 1210 nM, the koff was 0.0216 s⁻¹ and the association rate constant (kon) was determined as 17900 M⁻¹ s⁻¹.
